2 molecules from article PMC3961559 can be followed below.

Like-named read-outs stand apart in the source and are kept apart here.

The target of series [1] is T1, human alpha-thrombin (Homo sapiens, UniProt P00734;P00734 328-363;364-622). Kind of series: competition.
Series [2] has as its target T1, human alpha-thrombin. Kind of series: competition. This is another data set of the same source.

In the case of GGCGTAACTGATCGATCGT (ssDNA) [non-specific oligonucleotide], in the series with human alpha-thrombin [1], the binding result is listed as “no binding”.
In the case of GGTTGGTGTGGTTGG (structured_DNA) [thrombin binding aptamer (TBA) oligo], the binding result with human alpha-thrombin [2] is given as “binds”.
